This series concerns the molecule itself. The series is described as follows: SDS-PAGE after partial denaturation; fractionated fimbriae in loading buffer with 1% SDS and 0.5 M 2-mercaptoethanol heated at 37, 60 and/or 80°C for 10 min; CBB staining and western blotting.

The results in this text go back to paper PMC5351860, “Novel fimbrilin PGN_1808 in Porphyromonas gingivalis” (PLoS ONE, 2017).

B1: Mfa1 (Mfa1 fimbriae purified from the fimA gene-deletion mutant of P. gingivalis ATCC 33277) (natural protein)
chain: AGDGQDQANPDYHYVGEWAGKDKIEKVSIYMVPQGGPGLVESAEDLDFGTYYENPTIDPATHNAILKPKKGIKVNSAVGKTVKVYVVLNDIAGKAKALLANVNAADFDAKFKEIIELSTQAQALGTVADGPNPATAAGKIAKKNGTTDETIMMTCLQPSDALTIEAAVSEANAIAGIKNQAKVTVERSVARAMVSTKAQSYEIKATTQIGEIAAGSVLATITDIRWVVAQGERRQYLSKKRGTVPENTWVTPGSGFVPTSSTFHTNATEYYDYAGLWEDHNTNEAVISGTQVPTLADYQLQDVTGELANALSGKFLLPNTHKSGANAASSDYKRGNTAYVLVRAKFTPKKEAFIDRGKTYSDNTAVPEYVAGEDFFVGENGQFYVSMKSVTDPKVGGVAGMKAHKYVKGKVLYYAWLNPSTTSPDSWWNSPVVRNNIYHIHIKSIKKLGFNWNPLVPDPDPSNPENPNNPDPNPDEPGTPVPTDPENPLPDQDTFMSVEVTVLPWKVHSYEVDL
notes: source: fimA gene-deletion mutant derived from P. gingivalis ATCC 33277; fractionated by ammonium sulfate precipitation and DEAE Sepharose chromatography
As for B1, the binding result is “binds”.
